Experimental data reported in patent US20260231954A1, “PESTICIDAL ENZYMES FOR USE ON NEMATODES, INSECTS, AND MOLLUSKS” (priority 2023, published 2026).

Legend:
[1] = test system: soybean cyst nematode (SCN, Heterodera glycines); experiment: Soybean cyst nematode reproduction on soybean after seed treatment, controlled environment (cysts per gram of root tissue or per plant); type: in vivo; details: for % Comparison to Control (figure in parentheses): change vs base control
[2] = test system: Fall armyworm (Spodoptera frugiperda); experiment: Diet-surface overlay (DSO) bioassay on Fall armyworm; type: in vivo
Experimental: (§1) Diet-surface overlay bioassays are conducted with artificial diet mixes without antibiotics in 1.5 cm^2 cell bioassay trays(s). Artificial diets are commercially available from Southland Products Inc. Diets were prepared by dispersing 0.5 mL of molten diet to each 1.5 cm^2 cell. After solidification, 0.1 mL enzyme treatments were dispersed on top of diet in each cell and the tray was gently rocked in an orbital shaker to spread the liquid uniformly over the diet surface. Trays were placed under clean airflow until the surface of each cell was uniformly dried. One or two 16-cell sections were used per treatment (the number in larvae treated was 16 or 32).
(§2) One healthy first instar larva was placed into each treatment cell, each 16-cell section was covered with a re-sealable lid and incubated at 27° C. and light-dark period of 16:8 hrs. After 7 days, and according to the species, the number of individuals in the following developmental categories was recorded.
(§3) Negative/untreated controls were treated with filtered water and positive controls were treated with lethal doses of Bacillus thuringiensis subsp. Kurstaki (Btk) spores at 1000 ppm.

[3] = test system: Btk resistant Diamondback moth; experiment: Diet-surface overlay (DSO) bioassay on Btk resistant Diamondback moth; type: in vivo, Plutella xylostella; details: number of individuals, n = 32, 7 days
Experimental: as §1, §2
Diamondback moth (Plutella xylostella): Dead Larva (lack of movement), Larva Stage I (≤50% relative size), Larva Stage II (100% relative size, full size), Early Pupa (light green color), Late Pupa (light-dark brown color), and Adult.
as §3
However, both neutral proteases reduced the number of individuals reaching adult stage.
The effect of lipase (10× enzyme rate) and free lipases were tested on a Diamondback Moth Btk resistant strain. Free Lipases from Burkholderia cepacia (Bc) and Pseudomonas fluorescens (Pf) were tested along with Lipase (SEQ ID NO: 76) and the results are shown below in Table 45.

[4] = Table 46, number of individuals, n = 32, 7 days
[5] = Table 50, esterases, Fall armyworm, number of individuals of n = 32
[6] = Table 50, esterases, Fall armyworm, number of individuals of n = 32, DSO bioassay, dose per treatment in U/mL Diet
[7] = Table 48, chitinases, Fall armyworm, number of individuals of n = 32, DSO bioassay

B1: Chitinase C (SEQ ID NO: 249): Chitinase C (protein, listed as Bacillus thuringiensis)
chain: DSPKQSQKIVGYFPSWGVYGRNYQVADIDASKLTHLNYAFADICWKGKHGNPSTHPDNPNKQTWNCKESGVPLQNKEVPNGTLVLGEPWADVTKSYPGSGTTWEDCDKYARCGNFGELKRLKAKYPHLKTIISVGGWTWSNRFSDMAADEKTRKVFAESTVAFLRAYGFDGVDLDWEYPGVETIPGGSYRPEDKQNFTLLLQDVRNALNKAGAEDGKQYLLTIASGASQRYADHTELKKISQILDWINIMTYDFHGGWEATSNHNAALYKDPNDPAANTNFYVDGAIDVYTNEGVPVDKLVLGVPFYGRGWKSCGKENNGQYQPCKPGSDGKLASKGTWDDYSTGDTGVYDYGDLTANYVNKNGFVRYWNDTAKVPYLYNATTGTFISYDDNESMKYKTDYIKTKGLSGAMFWELSGDCRTSPKYSCSGPKLLDTLVKELLGGPINQKDTEPPTNVKNIIVTNKTSSSVQLSWTASTDNVGVTEYEITAGEEKWSATTNSITIKNLKPNTEYTFSVIAKDASGNKSHPTALTVKTDEANTTPPDGNGTATFSVTSNWGSGYNFSIIIKNNGTIPIKNWKLEFDYSGNLTQVWDSKISSKTNNHYVITNAGWNGEIPPGGSITIGGAGTGNPAELLNAVISEN
Q: With B1 as the molecule, how does the “% Comparison to Control (figure in parentheses)” value (“% Comparison to Control” for short) ([1]; Table 18) read?
A: −22%

Q: What about the “Average cysts per g of root tissue” value ([1]; Table 18, free enzyme seed treatment) of the same molecule?
A: 45.7 cysts per g of root tissue

B2: Lipase: lipase of Table 46, not further identified; probably Lipase (SEQ ID NO: 76) (protein, listed as Bacillus thuringiensis)
chain: MRLMRRCVALLIVFFIMAPMISTNVRAGVVKELKTGFPDQEVFTPGEWFLGQKPANYDENKPPILFVQGRNGNADSWYGKTVYHDINDMYDYALKAGYQTVFIQLYDAAGKGSASQWDNGKLLAQKLEEIYNHFGKKVNIVAHSKGGIDTQAALVGYGANRFVGNVITLATPHHGSNLADLSYSWWAGWLASILGQKDDGTYSLQMGEMAKFRSTIDNNPAAKLNRYYTVTGTSWGPVFSALSMGGLYLSSYGSNDGLVNECSAKLPYGTHLFTDSRFDHDNIRKGSAVFARIEPYLRTANVPVPALVASSTSSNENIEQLNTTSNQSILGGELPQNQWIEQTVAVDKKAEGIVSILTASSDVEVQMISPKGKVYTNKDSVITTGEGESFFGGATIRTFKFDKMDVGEWKVKMMTKQSKDAYLVVSDYKTGAPFVLQMPTKVKANKSEYKLKKSPVAPEMKGDLSITVRVVNKEGKLVSEFNELQNVNNNTFTGALKNIKQPGVYNVTMDIKGMNKEGKSYSRTIVKSVYVEK
modifications: Lipase (Lip1 H192)
Q: Which “Dead Larva” value ([2]; Table 46, lipases, number of individuals, n = 32, 7 days) does the source give for B2 here?
A: 5

Q: What about the “Larva Stage I” value [2, 4] of the same molecule?
A: 2

Q: And the “Larva Stage II” value [2, 4]?
A: 10

Q: What about the “Larva Stage III” value [2, 4] of the same molecule?
A: 15

Q: And the “Larva Stage IV” value [2, 4]?
A: 0

B3: Trypsin-like protease (SEQ ID NO: 126): Trichoderma lixii trypsin-like protease (protein, listed as Trichoderma lixii)
chain: AAITPRGSDIVGGTTAALGEFPYIVSLSTGGSHFCGGVLIDSRTVVTAGHCTIDQRASSVKVRAGTLTWASGGTQVGVSSLTLHPSYTVDSQGVPDNDVGVWHLATAIPTSSTIGYATLPASGSDPAAGTTLTVAGWGTTSENSNSLPSTLRKVSVPVVARATCDSDYDGEISNNMFCAAVAAGGKDSCSGDSGGPIIDPSGTLVGVVSWGQGCAERGFPGVYTRLGNYVSFINSNRG
modifications: H182 trypsin-like protease
Q: Which “Average cysts per g of root tissue” value ([1]; Table 11, free enzyme seed treatment 2 fl. oz. per unit of seed (ILEVO 0.15 mg active ingredient per seed), soybean P18A98X, 3 weeks after inoculation) does the source give for B3 here?
A: 18.6 cysts per g of root tissue

B4: H6-pnbA (SEQ ID NO: 94): recombinant six-histidine tagged esterase pnbA from Bacillus subtilis (protein, listed as Bacillus subtilis)
chain: MTHQIVTTQYGKVKGTTENGVHKWKGIPYAKPPVGQWRFKAPEPPEVWEDVLDATAYGSICPQPSDLLSLSYTELPRQSEDCLYVNVFAPDTPSKNLPVMVWIHGGAFYLGAGSEPLYDGSKLAAQGEVIVVTLNYRLGPFGFLHLSSFNEAYSDNLGLLDQAAALKWVRENISAFGGDPDNVTVFGESAGGMSIAALLAMPAAKGLFQKAIMESGASRTMTKEQAASTSAAFLQVLGINEGQLDKLHTVSAEDLLKAADQLRIAEKENIFQLFFQPALDPKTLPEEPEKAIAEGAASGIPLLIGTTRDEGYLFFTPDSDVHSQETLDAALEYLLGKPLAEKVADLYPRSLESQIHMMTDLLFWRPAVAYASAQSHYAPVWMYRFDWHPKKPPYNKAFHALELPFVFGNLDGLERMAKAEITDEVKQLSHTIQSAWITFAKTGNPSTEAVNWPAYHEETRETLILDSEITIENDPESEKRQKLFPSKGE
modifications: Esterase (pnbA)
Q: Which “Larva Stage I” value [2, 5] does the source give for B4 here?
A: 0

Q: What about the “Larva Stage II” value [2, 5] of the same molecule?
A: 0

Q: What about the “Larva Stage III” value [2, 5] of the same molecule?
A: 15

Q: What about the “Larva Stage IV” value [2, 5] of the same molecule?
A: 17

Q: What about the “Dead Larva” value [2, 6] of the same molecule?
A: 0

B5: Pseudomonas sp. esterase free enzyme concentrate (SEQ ID NO: 248): free enzyme concentrated in an Amicon Ultra 4K filter unit, 4× volumetric concentration (protein, listed as Pseudomonas sp.)
chain: MTEPLILQPVKPADACVIWLHGLGADRYDFLPVAEALQEILLSTRFVLPQAPTRPVTINGGYAMPSWYDIKAMSPARAIDRDELEASADRIIELIEEQRSSGIDASRIFLAGFSQGGAVVYHTAFLKWQGPLGGVLALSTYAPTFSDELELSASQQRIPVLSLHGQFDNVVQNSMGRTAYEYLKAHGVTVTWQEYPMEHEVLPEEIRDIGTWLSERLR
modifications: concentrated
notes: free enzyme concentrated in an Amicon Ultra 4K filter unit, 4× volumetric concentration
Q: Which “% Comparison to Control” value ([1]; Table 16) does the source give for B5 here?
A: −25%

Q: What about the “Average cysts per g of root tissue” value ([1]; Table 16, free enzyme or 4x concentrate seed treatment, soybean 2830E3) of the same molecule?
A: 182.1 cysts per g of root tissue

B6: Chitinase (SEQ ID NO: 185): recombinant chitinase from Akanthomyces lecanii; Acidic Chitinase 1 (Chit1) (protein, listed as Akanthomyces lecanii)
chain: MAKCTSPDRKCPAPLIDAPINSFMTDGWADTDIHWEGDSWNDSGTNIYGCLKQLNILKKHNRNFKVLLSIGGWTYSSNFPAPASTPEGRDTFAKSCVELVKNLGFDGIDIDWEYPKTAEEAGHFVELLAEVRKQLDEYSARAANNYHFELSVACPAGPDNFQKLNISGMDAYLDFWNLMAYDYAGSWDKNSGHQANLYPCKDAPGCTPFSTVAAVDYYTSNGVSPDKLVLGMPLYGRAFENCDGIGQPFQGVGQGTWEQGVYDYKKLPLEGAEEHKDDDSCATYCHNAESRTLVTYDTPELAKTKADFIKERGLGGGMWWESSADKAGDDSLIQVVVSELGGPEALKQQQNCISYPETKYDNLRDGLPDN
modifications: Acidic Chitinase 1 (Chit1-H195)
Q: Which “Dead Larva” value ([3]; Table 47, chitinases, rate in mU/mL diet column) does the source give for B6 here?
A: 2

Q: And the Adult ([3]; Table 47)?
A: 1

Q: What about the “Early Pupa” value ([3]; Table 47) of the same molecule?
A: 8

Q: And the “Larva Stage I” value ([3]; Table 47)?
A: 2

Q: And the “Larva Stage II” value ([3]; Table 47)?
A: 2

Q: What about the “Late Pupa” value ([3]; Table 47) of the same molecule?
A: 17

Q: And the “Larva Stage I” value [2, 7]?
A: 4

Q: What about the “Larva Stage II” value [2, 7] of the same molecule?
A: 5

Q: And the “Larva Stage III” value [2, 7]?
A: 8

Q: What about the “Larva Stage IV” value [2, 7] of the same molecule?
A: 8

Q: And the “Dead Larva” value ([2]; Table 48, chitinases, Fall armyworm, number of individuals of n = 32, DSO bioassay, dose per treatment in mU/mL Diet)?
A: 7

B7: Bacillus thuringiensis Lipase 1 (SEQ ID NO: 250): Bacillus thuringiensis Lipase 1 (protein, listed as Bacillus thuringiensis)
chain: YGFVSGVNDVLNPKASNLIKKTDVVAKEKKKTGTLQIVSLGDSLTRGVGDKEGIGYVGRMKEDLQKDYKQKIALTNLAVSGAKMPDLLKQIESNGAQYSIKQADVIVLTIGGNDLFPGWESLGKIDLETYRPDTETFQNEAKKIIEEIRKLNTDSPIFWLGLYNPFEDVEDLKGSSNIVVDWNASLEKLALNDKNVYITPTFDLFQNRGKDLLYSDHFHPNEVGYTYMAERLVQNVVSKLKLEQGGVK
Q: With B7 as the molecule, how does the “% Comparison to Control” value ([1]; Table 19) read?
A: −25%

Q: And the “Average cysts per g of root tissue” value ([1]; Table 19, free enzyme seed treatment, soybean 2830E3)?
A: 332.0 cysts per g of root tissue

B8: H6-pytH (SEQ ID NO: 95): recombinant six-histidine tagged esterase pytH from Sphingobium wenxiniae (protein, listed as Sphingobium wenxiniae)
chain: MTVTDIILIHGALNRGACYDAVVPLLEARGYRVHAPDLTGHTPGDGGHLSVVDMEHYTRPVADILARAEGQSILLGHSLGGASISWLAQHHPDKVAGLIYLTAVLTAPGITPETFVLPGEPNRGTPHALDLIQPVDEGRGLQADFSRLERLREVFMGDYPGEGMPPAEQFIQTQSTVPFGTPNPMEGRALEIPRLYIEALDDVVIPIAVQRQMQKEFPGPVAVVSLPASHAPYYSMPERLAEAIADFADAPAEYRQTATKAGPDRPAGADGGRADRADLP
modifications: Esterase (pytH)
Q: B8 was tested. Which “Larva Stage I” value [2, 5] did it give?
A: 0

Q: And the “Larva Stage II” value [2, 5]?
A: 0

Q: And the “Larva Stage III” value [2, 5]?
A: 13

Q: What about the “Larva Stage IV” value [2, 5] of the same molecule?
A: 19

Q: And the “Dead Larva” value [2, 6]?
A: 0
